Experimental findings from publication PMC2607554, “In-Vitro Helix Opening of M. tuberculosis oriC by DnaA Occurs at Precise Location and Is Inhibited by IciA Like Protein” are described below.

The target of the data set is T1, IciA (rIciA, LysR family) (Mycobacterium tuberculosis H37Rv, UniProt P9WMF5 1-303).
T1 sequence: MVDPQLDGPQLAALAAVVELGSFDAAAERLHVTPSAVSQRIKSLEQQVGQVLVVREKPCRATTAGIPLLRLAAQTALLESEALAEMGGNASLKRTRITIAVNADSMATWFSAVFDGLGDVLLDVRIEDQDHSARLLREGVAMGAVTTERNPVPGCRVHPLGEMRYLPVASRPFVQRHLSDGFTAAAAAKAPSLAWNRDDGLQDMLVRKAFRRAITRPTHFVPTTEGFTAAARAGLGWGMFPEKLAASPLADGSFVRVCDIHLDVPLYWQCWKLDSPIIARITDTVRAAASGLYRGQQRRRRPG
Briefly: EMSA; 250-750 ng IciA, 1 ug poly(dI/dC). The following applies: protein: recombinant; tags: His tag (pET28a NdeI/HindIII); chain copies: 4; label: 5' 32P; blunt. In general terms: Mobility shift assays separate free from complexed probe on a gel.

B1: A+T rich oriC oligonucleotide (Ori F1/Ori R1) (dsDNA)
DNA 1: TTCTTCCGACAACGTTCTTAAAAAAACTTCTCTA
DNA 2: TAGAGAAGTTTTTTTAAGAACGTTGTCGGAAGAA
B1: the binding result was “binds”.
